# Variants at the floor of the assay were thinned out.
# Experiments:
# biotinyl-Phe-oxazolone = assay: self-aminoacylation, catalytic enhancement (BFO) (fold over background); higher = more active; k-Seq, kA / k0A0; sequences stand for … in GGGAAUGGAUCCACAUCUACGAAUUC…UUCACUGCAGACUUGACGAAGCUG
# Procedure, shortened: (§1)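 Mutagenized RNA pools with a 21-nt variable region (0.43 μM) reacted with each biotinyl-aminoacyl-oxazolone at 2–1250 μM. Reactions ran in 50 μL HEPES/NaCl/KCl/MgCl2/CaCl2 buffer with 5% acetonitrile, pH 6.9–7.0, for 90 minutes at room temperature. Streptavidin-captured RNA was quantified by triplicate qPCR and Illumina sequencing, and per-sequence fraction reacted was fit to a pseudo-first-order model with 1000 bootstraps. Catalytic enhancement is median kA divided by the uncatalyzed rate, the low-activity peak of a bimodal Gaussian fit.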
# biotinyl-Val-oxazolone = assay: self-aminoacylation, catalytic enhancement (BVO) (fold over background); higher = more active; k-Seq, kA / k0A0; sequences stand for … in GGGAAUGGAUCCACAUCUACGAAUUC…UUCACUGCAGACUUGACGAAGCUG
# Procedure, shortened: as §1
# biotinyl-Trp-oxazolone = assay: self-aminoacylation, catalytic enhancement (BWO) (fold over background); higher = more active; k-Seq, kA / k0A0; sequences stand for … in GGGAAUGGAUCCACAUCUACGAAUUC…UUCACUGCAGACUUGACGAAGCUG
# Procedure, shortened: as §1
# biotinyl-Leu-oxazolone = assay: self-aminoacylation, catalytic enhancement (BLO) (fold over background); higher = more active; k-Seq, kA / k0A0; sequences stand for … in GGGAAUGGAUCCACAUCUACGAAUUC…UUCACUGCAGACUUGACGAAGCUG
# Procedure, shortened: as §1
# biotinyl-Met-oxazolone = assay: self-aminoacylation, catalytic enhancement (BMO) (fold over background); higher = more active; k-Seq, kA / k0A0; sequences stand for … in GGGAAUGGAUCCACAUCUACGAAUUC…UUCACUGCAGACUUGACGAAGCUG
# Procedure, shortened: as §1
# biotinyl-Ile-oxazolone = assay: self-aminoacylation, catalytic enhancement (BIO) (fold over background); higher = more active; k-Seq, kA / k0A0; sequences stand for … in GGGAAUGGAUCCACAUCUACGAAUUC…UUCACUGCAGACUUGACGAAGCUG
# Procedure, shortened: as §1
Sequence,self-aminoacylation (biotinyl-Phe-oxazolone),self-aminoacylation (biotinyl-Val-oxazolone),self-aminoacylation (biotinyl-Trp-oxazolone),self-aminoacylation (biotinyl-Leu-oxazolone),self-aminoacylation (biotinyl-Met-oxazolone),self-aminoacylation (biotinyl-Ile-oxazolone)
AUUCCCCUAGGUCAUCCGGUG [Fam2.2 aminoacylation ribozyme variant],295,26.9,39.5,51.5,38.5,27.6
AUUACCCUCGUCAUCGAGUUA [Fam2.1 aminoacylation ribozyme variant],0.569,0.943,0.486,0.983,0.915,0.965
AUUCACCUAGGUCAUCGGGGU [Fam2.2 aminoacylation ribozyme variant],40.5,5.09,7.01,12.2,7.67,5.09
CUUACCCAGGUCAUCGAGUGA [Fam2.1 aminoacylation ribozyme variant],4.25,3.6,5.54,4.56,4.94,3.04
AUUAACCUGUUCAUCGAGUGA [Fam2.1 aminoacylation ribozyme variant],15.8,2.4,5.29,4.93,4.16,2.4
AUUACCCUGCUCAUCGAGGGA [Fam2.1 aminoacylation ribozyme variant],0.691,0.905,0.707,0.858,0.947,1.02
AUUAACCUAGCUCAUCGGGUG [Fam2.2 aminoacylation ribozyme variant],8.47,1.79,1.86,1.65,1.96,1.79
AUUCACCGAGGUCAACGGGUG [Fam2.2 aminoacylation ribozyme variant],36.9,3.27,5.14,8.52,5.75,3.52
CCACACUUCACGCAAUCGGGC [Fam1B.1 aminoacylation ribozyme variant],20,3.33,2.1,2.39,2.18,2.42
AUUCACCCAGGUGAUCGGGUG [Fam2.2 aminoacylation ribozyme variant],25.7,3.59,4.5,3.44,4.45,3.64
CUAAUUCAAAAAAUCGGUCUG [Fam1A.1 aminoacylation ribozyme variant],1.9,0.668,1.18,0.727,0.636,0.751
AAUACCCUGGUCAUGGAGUGA [Fam2.1 aminoacylation ribozyme variant],1.9,1.86,3.45,3.47,2.43,2.21
UUACUUCAAACAAUCGUUCUG [Fam1A.1 aminoacylation ribozyme variant],2.05,0.975,1.05,0.983,1,0.996
CUACUUCAUACAAUCGGUAUG [Fam1A.1 aminoacylation ribozyme variant],0.628,0.731,0.34,0.468,0.508,0.431
CUACUUAAAACAAUCGGUGUG [Fam1A.1 aminoacylation ribozyme variant],0.821,0.684,1.17,0.96,0.72,0.596
AAGUUUGUUAAUAGUCGAAAG [Fam3.1 aminoacylation ribozyme variant],1.08,0.998,0.713,0.935,0.764,0.947
AUUCAACUAGGUCAUCGGGCG [Fam2.2 aminoacylation ribozyme variant],5.35,2.36,2.46,3.67,2.73,2.48
AUGUUUGCUAAUAGUCCCAAG [Fam3.1 aminoacylation ribozyme variant],2.79,1.11,1.25,0.966,0.965,1.08
AUUACCCUGGACAUCGGGUGA [Fam2.1 aminoacylation ribozyme variant],29.7,7.46,7.69,10.2,9.33,7.02
AUGCACCUAGGUCAUCCGGUG [Fam2.2 aminoacylation ribozyme variant],57.6,4.06,7.68,7.51,6.24,4.42
AAGUUGGCUACUAGUCGCAAG [Fam3.1 aminoacylation ribozyme variant],1.58,1.76,1.42,1.86,1.2,1.65

# — the supplement of paper PMC9233669
